Source: US20060073149A1

Experiments:
Soluble Aβ 1-42 = Soluble Aβ 1-42 (UniProt P05067); experiment: SPR (BIAcore 2000), antibody captured on anti-Ig, soluble Aβ in flow
Soluble Aβ 1-40 = Soluble Aβ 1-40 (UniProt P05067); experiment: as above

| Kd (Soluble Aβ 1-42) | Kd (Soluble Aβ 1-40) | Substance |
| --- | --- | --- |
| 0.004 nM | 0.004 nM | Murine anti-Aβ antibody 266 |
| 24 nM | 23 nM | anti-Aβ murine antibody 4G8 |
| 4.4 nM | – | anti-Aβ murine antibody 21F12 |
